PMC5298718

Target: NRP1-PerCP-Cy5.5 (carrier free recombinant neuropilin-1 coupled to PerCP-Cy5.5) (UniProt O14786)
Assay: FRET or BRET; Scheme 3: VEGF (22.4 nM or 11.2 nM, diluted in PBS) incubated simultaneously in solution with the donor (RLuc8-Ra02 or RLuc8-4xGly-Ra02, cleared HEK293 lysate) and the acceptor NRP1-PerCP-Cy5.5, both in excess; n-CLZ in BRET assay buffer; BRET ratio magenta filter/blue filter, against a no-VEGF control

Sequence of UniProt O14786 (O14786 22-856): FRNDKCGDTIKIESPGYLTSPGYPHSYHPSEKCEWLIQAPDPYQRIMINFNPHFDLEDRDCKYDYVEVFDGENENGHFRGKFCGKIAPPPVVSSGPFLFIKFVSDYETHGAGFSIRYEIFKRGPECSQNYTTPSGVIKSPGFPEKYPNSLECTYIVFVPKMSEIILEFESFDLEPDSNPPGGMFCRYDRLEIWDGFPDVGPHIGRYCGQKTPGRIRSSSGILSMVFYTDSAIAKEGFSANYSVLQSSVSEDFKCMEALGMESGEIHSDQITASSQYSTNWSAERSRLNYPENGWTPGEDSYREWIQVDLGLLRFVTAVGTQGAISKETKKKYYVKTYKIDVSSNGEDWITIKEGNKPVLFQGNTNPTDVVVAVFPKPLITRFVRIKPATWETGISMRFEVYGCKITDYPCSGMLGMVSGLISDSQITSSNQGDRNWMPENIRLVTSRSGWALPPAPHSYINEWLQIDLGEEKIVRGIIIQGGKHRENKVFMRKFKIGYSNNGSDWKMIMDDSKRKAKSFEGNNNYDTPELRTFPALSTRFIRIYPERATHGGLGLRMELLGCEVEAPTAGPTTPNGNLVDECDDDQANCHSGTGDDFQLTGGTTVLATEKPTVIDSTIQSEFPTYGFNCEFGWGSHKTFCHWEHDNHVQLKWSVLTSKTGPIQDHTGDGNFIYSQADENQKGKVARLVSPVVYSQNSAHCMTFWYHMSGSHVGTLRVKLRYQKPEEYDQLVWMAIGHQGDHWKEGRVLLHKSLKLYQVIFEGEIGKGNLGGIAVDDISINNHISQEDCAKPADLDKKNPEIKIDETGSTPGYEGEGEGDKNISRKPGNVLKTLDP

vascular endothelial growth factor (rhVEGF165) (ligand)
BRET ratio (donor RLuc8-4xGly-Ra02, 11.2 nM VEGF): 114 mBU
BRET ratio (donor RLuc8-4xGly-Ra02, 22.4 nM VEGF): 119 mBU
BRET ratio (donor RLuc8-Ra02, 11.2 nM VEGF): 110 mBU
BRET ratio (donor RLuc8-Ra02, 22.4 nM VEGF): 115 mBU
